# B1: Azoarcus group I ribozyme (parent)
# chain: GUGCCUUGCGCCGGGAAACCACGCAAGGGAUGGUGUCAAAUUCGGCGAAACCUAAGCGCCCGCCCGGGCGUAUGGCAACGCCGAGCCAAGCUUCGGCGCCUGCGCCGAUGAAGGUGUAGAGACUAGACGGCACCCACCUAAGGCAAACGCUAUGGUGAAGGCAUAGUCCAGGGAGUGGCGAAAGUCACACAAACCGG
# Variants of: B1
# Assay: reverse-splicing fitness (ratio to wild type); higher = more active; in vitro selection; Mg2+ level not given
# Outline: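 An in vitro group I ribozyme library with randomized positions was T7-transcribed and gel-purified. In triplicate, 10 pmol RNA in EPPS pH 7.5 was reacted with 50 pmoles of a 30-nt RNA substrate for 1 h at 37 °C across several added MgCl2 levels (1–48 mM), then stopped with EDTA. Products were reverse transcribed from a substrate-complementary primer, PCR-amplified and sequenced (HiSeq 4000). Fitness is a variant's read proportion after selection over that before, normalised to wild type.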
row,Variant,reverse-splicing fitness
1,GUGCCUUGCGCCGGGAAACCACGCAAGGGAUGGUGUCAAAUUCGGCGAAACCUAAGCGCCCGCCCGGGCGUAUGGCAACGCUGAGCCAAGCUUCGGCGCCUGCGCCGAUGCAGGUGUAGAGACUAGACGGCACCCACCUAAGGCUAACGUUAUGGUGAAGGCAUAGUCCAGGGAGAGGCGAAAGUCACACAAACCGG [C82U A111C A145U C150U U176A],0.0489
2,GUGCCUUGCGCCGGGAAACCACGCAAGGGAUGGUGUCAAAUUCGGCGAAACCUAAGCGCCCGCCCGGGCGUAUGGCAACGCUGAGCCAAGCUUCGGCGCCUGCGCCGAUGCAGGUGUAGAGACUAGACGGCACCCACCUAAGGCUAACGUUAUGGUGAAGGCAUAGUCCAGGGAGCGGCGAAAGUCACACAAACCGG [C82U A111C A145U C150U U176C],0.0704
3,GUGCCUUGCGCCGGGAAACCACGCAAGGGAUGGUGUCAAAUUCGGCGAAACCUAAGCGCCCGCCCGGGCGUAUGGCAACGCUGAGCCAAGCUUCGGCGCCUGCGCCGAUGCAGGUGUAGAGACUAGACGGCACCCACCUAAGGCUAACGUUAUGGUGAAGGCAUAGUCCAGGGAGGGGCGAAAGUCACACAAACCGG [C82U A111C A145U C150U U176G],0.0152
4,GUGCCUUGCGCCGGGAAACCACGCAAGGGAUGGUGUCAAAUUCGGCGAAACCUAAGCGCCCGCCCGGGCGUAUGGCAACGCUGAGCCAAGCUUCGGCGCCUGCGCCGAUGCAGGUGUAGAGACUAGACGGCACCCACCUAAGGCUAACGUUAUGGUGAAGGCAUAGUCGAGGGAGAGGCGAAAGUCACACAAACCGG [C82U A111C A145U C150U C169G U176A],0.0121
5,GUGCCUUGCGCCGGGAAACCACGCAAGGGAUGGUGUCAAAUUCGGCGAAACCUAAGCGCCCGCCCGGGCGUAUGGCAACGCUGAGCCAAGCUUCGGCGCCUGCGCCGAUGCAGGUGUAGAGACUAGACGGCACCCACCUAAGGCUAACGUUAUGGUGAAGGCAUAGUCGAGGGAGCGGCGAAAGUCACACAAACCGG [C82U A111C A145U C150U C169G U176C],0.0165
6,GUGCCUUGCGCCGGGAAACCACGCAAGGGAUGGUGUCAAAUUCGGCGAAACCUAAGCGCCCGCCCGGGCGUAUGGCAACGCUGAGCCAAGCUUCGGCGCCUGCGCCGAUGCAGGUGUAGAGACUAGACGGCACCCACCUAAGGCUAACGUUAUGGUGAAGGCAUAGUCGAGGGAGGGGCGAAAGUCACACAAACCGG [C82U A111C A145U C150U C169G U176G],0.00709
7,GUGCCUUGCGCCGGGAAACCACGCAAGGGAUGGUGUCAAAUUCGGCGAAACCUAAGCGCCCGCCCGGGCGUAUGGCAACGCUGAGCCAAGCUUCGGCGCCUGCGCCGAUGCAGGUGUAGAGACUAGACGGCACCCACCUAAGGCUAACGUUAUGGUGAAGGCAUAGUCGAGGGAGUGGCGAAAGUCACACAAACCGG [C82U A111C A145U C150U C169G],0.00836
8,GUGCCUUGCGCCGGGAAACCACGCAAGGGAUGGUGUCAAAUUCGGCGAAACCUAAGCGCCCGCCCGGGCGUAUGGCAACGCUGAGCCAAGCUUCGGCGCCUGCGCCGAUGCAGGUGUAGAGACUAGACGGCACCCACCUAAGGCUAACGUUAUGGUGAAGGCAUAGUCUAGGGAGUGGCGAAAGUCACACAAACCGG [C82U A111C A145U C150U C169U],0.0107
9,GUGCCUUGCGCCGGGAAACCACGCAAGGGAUGGUGUCAAAUUCGGCGAAACCUAAGCGCCCGCCCGGGCGUAUGGCAACGCUGAGCCAAGCUUCGGCGCCUGCGCCGAUGCAGGUGUAGAGACUAGACGGCACCCACCUAAGGCUAACGCUAUGGUGAAGGCAUAGUCAAGGGAGAGGCGAAAGUCACACAAACCGG [C82U A111C A145U C169A U176A],0.0129
10,GUGCCUUGCGCCGGGAAACCACGCAAGGGAUGGUGUCAAAUUCGGCGAAACCUAAGCGCCCGCCCGGGCGUAUGGCAACGCUGAGCCAAGCUUCGGCGCCUGCGCCGAUGCAGGUGUAGAGACUAGACGGCACCCACCUAAGGCUAACGCUAUGGUGAAGGCAUAGUCAAGGGAGCGGCGAAAGUCACACAAACCGG [C82U A111C A145U C169A U176C],0.0139
11,GUGCCUUGCGCCGGGAAACCACGCAAGGGAUGGUGUCAAAUUCGGCGAAACCUAAGCGCCCGCCCGGGCGUAUGGCAACGCUGAGCCAAGCUUCGGCGCCUGCGCCGAUGCAGGUGUAGAGACUAGACGGCACCCACCUAAGGCUAACGCUAUGGUGAAGGCAUAGUCAAGGGAGGGGCGAAAGUCACACAAACCGG [C82U A111C A145U C169A U176G],0.00703
12,GUGCCUUGCGCCGGGAAACCACGCAAGGGAUGGUGUCAAAUUCGGCGAAACCUAAGCGCCCGCCCGGGCGUAUGGCAACGCUGAGCCAAGCUUCGGCGCCUGCGCCGAUGCAGGUGUAGAGACUAGACGGCACCCACCUAAGGCUAACGUUAUGGUGAAGGCAUAGUCUAGGGAGGGGCGAAAGUCACACAAACCGG [C82U A111C A145U C150U C169U U176G],0.00669
13,GUGCCUUGCGCCGGGAAACCACGCAAGGGAUGGUGUCAAAUUCGGCGAAACCUAAGCGCCCGCCCGGGCGUAUGGCAACGCUGAGCCAAGCUUCGGCGCCUGCGCCGAUGCAGGUGUAGAGACUAGACGGCACCCACCUAAGGCUAACGUUAUGGUGAAGGCAUAGUCUAGGGAGCGGCGAAAGUCACACAAACCGG [C82U A111C A145U C150U C169U U176C],0.0136
14,GUGCCUUGCGCCGGGAAACCACGCAAGGGAUGGUGUCAAAUUCGGCGAAACCUAAGCGCCCGCCCGGGCGUAUGGCAACGCUGAGCCAAGCUUCGGCGCCUGCGCCGAUGCAGGUGUAGAGACUAGACGGCACCCACCUAAGGCUAACGUUAUGGUGAAGGCAUAGUCUAGGGAGAGGCGAAAGUCACACAAACCGG [C82U A111C A145U C150U C169U U176A],0.0154
15,GUGCCUUGCGCCGGGAAACCACGCAAGGGAUGGUGUCAAAUUCGGCGAAACCUAAGCGCCCGCCCGGGCGUAUGGCAACGCUGAGCCAAGCUUCGGCGCCUGCGCCGAUGCAGGUGUAGAGACUAGACGGCACCCACCUAAGGCUAACGCUAUGGUGAAGGCAUAGUCAAGGGAGUGGCGAAAGUCACACAAACCGG [C82U A111C A145U C169A],0.00715

# — the RNAGym collection of RNA variant scans (doi:10.1093/molbev/msab373)
